Measurements published in patent publication US6770740B1, “Crosslinked DNA condesate compositions and gene delivery methods” (The Regents of the University of Michigan, priority 1999, dated 2004).
Where no end group is shown, it is not given here. The star is where a group is joined. Carboxymethyl = O=C(O)C*

Legend:
[1] = Shear stress stability of cross-linked DNA condensates (salt sonication), Example 5; assay type: physicochemical; conditions: 30 sec sonication; highest lane 2.5 M
Method: Peptide DNA condensates (200 μl of 50 μg/ml) were formed and incubated at RT for 30 min and then combined with 0 to 200 μl of 5 M sodium chloride and normalized to 400 μl with HBM to achieve a final sodium chloride concentration of 0, 0.2, 0.4, 0.8, 1.0, 1.5, 2.0, and 2.5 M. Each sample was sonicated for 30 sec with a 100 W Microson™ XL-2000 ultrasonic probe homogenizer (Kontes, Vineland N.J.) with a vibrational amplitude of 6 to fragment uncondensed DNA (Adami et al., 1998). DNA condensates were digested with 30 μg of trypsin for 12 h at 37° C. then electrophoresed on an agarose gel and visualized by ethidium bromide staining.

[2] = QELS particle size and zeta potential of cross-linking peptide DNA condensates, Example 5; assay type: physicochemical; conditions: for Particle Size Mean Diameter, Oxidized, 15° / Particle Size Mean Diameter, Oxidized, 90°: HBM after 2 h incubation, 50 μg/ml DNA, 0.4 nmol peptide per μg DNA; for Particle Size Mean Diameter, Oxidized, 15°: scattering angle 15°; for Particle Size Mean Diameter, Oxidized, 90°: scattering angle 90°; for Particle Size Mean Diameter, Saline: HBM with added saline (0.15 M) after 15 min; for Particle Size Mean Diameter, Reduced: following addition of TCEP (1 mM)
Procedure, shortened: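 Condensates at 50 μg/ml DNA in HBM, 0.4 nmol peptide per μg DNA (charge ratio ~2:1); size by QELS at 15° and 90°, mean diameter from diffusion coefficient by unimodal cumulant analysis. Peptide IV series: 7.5-37.5 nmol peptide with 75 μg DNA, charge ratio 0.5-2.5; zeta potential averaged over 10 determinations.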

[3] = Shear stress stability (salt sonication assay), Example 6; assay type: physicochemical; conditions: 30 sec sonication; highest tested 2.5 M
Method: The relative stability of peptide DNA condensates were examined using a salt sonication assay (Adami and Rice, 1999). Peptide DNA condensates (200 μl of 50 μg/ml) were formed as described above, incubated at RT for 30 min and then combined with 0-200 μl of 5 m […] and normalized to 400 μl with HBM to achieve a final sodium chloride concentration of 0, 0.2, 0.4, 0.8, 1.0, 1.5, 2.0 and 2.5 M. Each sample was sonicated for 30 sec with a 100 W Microson™ XL-2000 ultrasonic probe homogenizer (Kontes, Vineland N.J.) with a vibrational amplitude of 5 fragment uncondensed DNA. DNA condensates were digested with 30 μg to trypsin for 12 h at 37° C., electrophoresed on a 1% agarose gel electrophoresed in TEA buffer for 2 h, then visualized by ethidium bromide staining and destaining prior to photography on a transilluminator.

HepG2 cells = assay: Cell uptake of 125I-DNA condensates in HepG2 cells, Example 5; assay type: cell-based; conditions: HepG2, 5 h transfection
Method: Iodinated plasmid DNA (pCMVL) was prepared with specific activity of 300 nCi per μg of DNA as described previously (Terebesi et al., 1998). Prior to forming DNA condensates, the specific activity of the ^125I DNA was adjusted to 4.5 nCi μg of DNA by combining with unlabeled plasmid. DNA condensates were prepared using AlkCWK18 or peptide II as described above. Peptide ^125I-DNA condensates (10 μg) were used to transfect HepG2 and COS 7 cells for 5 h according to the procedure described above. The radioactive media was removed, cells were washed once with 2 ml of 1 M sodium chloride and three times with 2 ml of cold PBS and then harvested with 1 ml of lysis buffer. The cell-associated radioactivity from triplicate transfections was quantified by gamma counting.

[4] = QELS particle size and zeta potential of peptide DNA condensates, Example 6; assay type: physicochemical; conditions: charge ratio 4:1, 50 μg/ml DNA in HBM; for Particle Size (nm): 90°, average and SD of three, No particles formed; for Zeta Potential (mV): average and SD of ten
Method: The particle size and zeta potential of peptide DNA condensates were determined by quasielastic light scattering (QELS) using a Brookhave ZetaPlus™. Particle size analysis was performed in triplicate at a DNA concentration of 50 μg/ml in HBM at a charge ratio of 4:1 and a scattering angle of 90°. Data analysis utilized a multimodal volume distribution option included with the instrument. Zeta potential was also determined using 50 μg/ml peptide DNA condensates prepared at a 4:1 charge ratio in HBM. The reported zeta potential was averaged from ten determinations.

[5] = test system: HepG2, COS 7 and CHO cells; assay: Luciferase gene expression, result stated for each of three cell lines, Example 6; assay type: cell-based
Method: HepG2 cells (1.5×10^5) were plated on 6×35 mm wells and grown to 50% confluencey in MEM supplemented with 10% FBS, penicillin and streptomycin (100 U/ml), sodium pyruvate (100 mM), and L-glutamine (2 mM). Transfections were performed in MEM (2 ml per 35 mm well) with 2% FBS with and without 80 μM chloroquine. Peptide DNA condensates (10 μg of DNA of 0.2 ml HBM) were added dropwise to triplicate wells. After a 5 h incubation at 37° C., the medium was replaced with MEM supplemented with 10% FBS. After 24 h, cells were washed with ice-cold phosphate buffered saline (calcium and magnesium free) and then treated with 0.5 ml of ice-cold lysis buffer (25 mM) Tris chloride pH 7.8, 1 mM EDTA, 8 mM magnesium chloride, 1% Triton X-100, 1 mM DTT) for 10 min. […]
Lysis buffer (300 μl), sodium-ATP (4 μl of a 180 mM solution, pH 7, 4° C.) and cell lysate (100 μl, 4° C.) were combined in a test tube, briefly mixed and immediately placed in the luminometer. Luciferase relative light units (RLU) were recorded on a Lumat™ LB 9501 (Berthoid Systems, Germany) with 10 sec integration after automatic injection of 100 μl of 0.5 mM D-luciferin (prepared fresh in lysis buffer without DTT). […] Protein concentrations were measured by Bradford assay using bovine serum albumin as a standard (Bradford, 1976). […]

COS 7 cells = assay: Luciferase reporter gene expression in COS 7 cells, Example 5; assay type: cell-based

## Alk-S-Cys-Trp-Lys18 (C(Carboxymethyl)WKKKKKKKKKKKKKKKKKK) [AlkCWK18]
[1]
  sodium chloride concentration up to which DNA is protected from sonicative fragmentation: 0.4 M
[2]
  Particle Size Mean Diameter, Oxidized, 15°: 97 nm
  Particle Size Mean Diameter, Oxidized, 90°: 95 nm
  Particle Size Mean Diameter, Saline: 1215 nm
  Particle Size Mean Diameter, Reduced: 74 nm
[3]
  sodium chloride concentration up to which DNA condensates are stable: 0.4 M
HepG2 cells
  125I-DNA uptake, % of dose: 9.5 % of dose
[4]
  Particle Size (nm): 64 ± 11 nm
  Zeta Potential (mV): 26 ± 1 mV
[5]; in each cell line
  lower gene expression in the absence of chloroquine relative to presence of 80 μM chloroquine: 10-15 fold

## Cys-Trp-Lys17-Cys (CWKKKKKKKKKKKKKKKKKC) [Peptide II]
[1]
  sodium chloride concentration up to which DNA is protected from sonicative fragmentation: 1.0 M
[2]
  Particle Size Mean Diameter, Oxidized, 15°: 31 nm
  Particle Size Mean Diameter, Oxidized, 90°: 42 nm
  Particle Size Mean Diameter, Saline: 257 nm
  Particle Size Mean Diameter, Reduced: 121 nm
COS 7 cells
  increase in luciferase gene expression relative to AlkCWK18: 10 fold
[3]
  sodium chloride concentration up to which DNA condensates are stable: 1 M
HepG2 cells
  125I-DNA uptake, % of dose: 8.7 % of dose
[4]
  Particle Size (nm): 53 ± 16 nm
  Zeta Potential (mV): 28 ± 9 mV
[5]; in each cell line tested, charge ratio 4, 80 μM chloroquine
  enhancement of gene expression over peptide 1 DNA condensates: 10 to 40 fold
